The values that follow are results of earlier work, collected in paper PMC11401910, “Dual client binding sites in the ATP-independent chaperone SurA” (Nature Communications, 2024).

For this data set, the target named is OmpX (Escherichia coli) (UniProt P0A917). Conditions: cited from earlier work.
Chain of OmpX (Escherichia coli) (P0A917 24-171): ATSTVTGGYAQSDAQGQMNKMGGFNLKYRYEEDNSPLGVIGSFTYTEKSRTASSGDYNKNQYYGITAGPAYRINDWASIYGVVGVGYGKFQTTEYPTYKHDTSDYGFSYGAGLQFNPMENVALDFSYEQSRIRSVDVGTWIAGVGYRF

Chain of SurA (P0ABZ6 21-428): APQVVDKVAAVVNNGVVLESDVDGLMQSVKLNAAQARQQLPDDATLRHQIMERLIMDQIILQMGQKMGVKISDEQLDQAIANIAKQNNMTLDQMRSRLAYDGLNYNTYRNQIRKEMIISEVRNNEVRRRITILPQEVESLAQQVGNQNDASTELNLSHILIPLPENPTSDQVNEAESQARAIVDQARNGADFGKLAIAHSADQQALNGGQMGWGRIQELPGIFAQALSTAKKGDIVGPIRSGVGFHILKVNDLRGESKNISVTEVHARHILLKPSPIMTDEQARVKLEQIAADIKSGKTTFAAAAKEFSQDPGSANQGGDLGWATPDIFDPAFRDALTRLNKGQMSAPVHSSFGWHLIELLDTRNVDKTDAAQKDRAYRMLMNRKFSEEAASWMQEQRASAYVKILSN

What is called Kd is the concentration at which binding is half-saturated. Turning to SurA (from UniProt P0ABZ6), the Kd is 1000 nM.
